Where two headings read alike, the source gives them in different places. Residues, ends and D or L forms follow the SMILES beside them. *: point of attachment. Cbz = O=C(OCc1ccccc1)*; CH2F = FC*
B1: rIL-1β: Murine recombinant IL-1β (401-ML, R&D systems) (protein, UniProt P10749 118-269, looked up)
Interleukin-1 beta: VPIRQLHYRLRDEQQKSLVLSDPYELKALHLNGQNINQQVIFSMSFVQGEPSNDKIPVALGLKGKNLYLSCVMKDGTPTLQLESVDPKQYPKKKMEKRFVFNKIEVKSKVEFESAEFPNWYISTSQAEHKPVFLGNNSGQDIIDFTMESVSS

Tests used:
splenic CD3^+ T cells = assay: Splenic T cell counts by FACS after experimental stroke; type: in vivo, mice; conditions: i.p. 30 minutes after stroke surgery; Z-IETD-FMK 0.8 mg kg^−1, Z-LEHD-FMK; normalized to sham
From the text: (§1) Mice were anaesthetized with isoflurane delivered in a mixture of 30% O2 and 70% N2O. An incision was made between the ear and the eye in order to expose the temporal bone. Mice were placed in supine position, and a laser Doppler probe was affixed to the skull above the middle cerebral artery (MCA) territory. The common carotid artery and left external carotid artery were exposed via midline incision and further isolated and ligated. A 2-mm silicon-coated filament (Doccol) was inserted into the internal carotid artery, advanced gently to the MCA until resistance was felt, and occlusion was confirmed by a corresponding decrease in blood flow (i.e., a decrease in the laser Doppler flow signal by 80%. After 60 minutes of occlusion, the animals were re-anesthetized, and the filament was removed. After recovery, the mice were kept in their home cage with ad libitum access to water and food. Sham-operated mice received the same surgical procedure, but the filament was […] in lieu of being advanced to the MCA. Body temperature was maintained at 37° C. throughout surgery in all mice via feedback-controlled heating pad. The overall mortality rate of animals subjected to MCA occlusion was approximately 20%. All animals in the sham group survived the procedure. Exclusion criteria: 1. Insufficient MCA occlusion (a reduction in blood flow to […] of the baseline value). 2. Death during the surgery. 3. Lack of brain ischemia as quantified post-mortem by histological analysis.
Anti-IL1β: Mice received two injections of antagonizing anti-IL-1β in sterile saline (clone: B122, InVivoMab, BioXcell, US), 1 hour prior to and 1 hour after surgery. Anti-IL-1β or the corresponding IgG control (Armenian hamster IgG, InVivoMab, BioXcell, US) was injected i.p. at a dose of 4 mg kg^−1 body weight in a final volume of 200 μl.
Anti-FasL: Mice received two injections of antagonizing anti-FasL in sterile saline (clone: MFL3, InVivoMab, BioXcell, US), 1 hour prior to and 1 hour after surgery. […]

[1] = tested on: caspase-1 activity in splenic CD11b^+ monocytes; assay: FAM FLICA flow cytometry of caspase-1 activity (inflammasome activation) in splenic monocytes after stroke; type: in vivo, mice; conditions: caspase-8 or caspase-9 inhibitor vs vehicle, 18 h after stroke, normalized to sham
From the text: as §1
Human recombinant DNase (hrDNase): 1000 U of human recombinant DNase (Roche, Switzerland) dissolved in incubation 1× buffer (40 mM Tris-HCl, 10 mM NaCl, 6 mM MgCl2, 1 mM CaCl2, pH 7.9, diluted in PBS, Roche) was injected i.v. in the tail vein 1 hour after surgery in a final volume of 100 μl. The control group was administered vehicle injections at the same volume, route, and timing as experimental animals.
Caspase-8 inhibitor (Z-IETD-FMK) & Caspase-9 inhibitor (Z-LEHD-FMK): The apoptosis inhibitors Z-IETD-FMK and Z-LEHD-FMK (R&D systems, US) in DMSO dissolved in PBS and injected i.p. 30 minutes after surgery. Z-LEHD-FMK was injected at a dose of […] body weight at a final volume of 200 μl. Z-IETD-FMK was injected at a dose of 0.8 mg kg^−1 body weight at a final volume of 100 μl. The control groups were administered vehicle injections at the same volume, route, and timing as experimental animals.
To detect the active forms of caspase-1 in blood, spleen, and bone marrow samples, cell suspensions were stained with the fluorescent inhibitor probe FAM-YVAD-FMK (FAM FLICA, BioRad, Germany) for 30 minutes at 37° C. according to the manufacturer's instructions. After washing, the cells were stained for CD45^+CD3^+ T cells and CD45^+Cd11b^+ monocytes. The flow cytometry data was acquired on a BD FACSVerse (for representative gating strategy, see FIG. 10B).

splenic T cells = assay: rIL-1β i.p. injection in WT mice: T cell death in the spleen by FACS; type: in vivo; conditions: rIL-1β 100 or 1000 ng single i.p. injection, 6 h later
Method: (§2) Murine recombinant IL-1β: Recombinant IL-1β (401-ML, R&D systems, US) was diluted in sterile PBS and administered intraperitoneally at a dose of 100 or 1000 ng per mouse in a total volume of 100 μl. The control group was administered vehicle injections at the same volume, route and timing as experimental animals.
(§3) Mice were deeply anaesthetized with ketamine (120 mg/kg) and xylazine (16 mg/kg) and blood was drawn via cardiac puncture in 50 mM EDTA (Sigma-Aldrich). Plasma was isolated by centrifugation at 3,000 g for 10 minutes and stored at −80° C. until further use. The blood pellet was resuspended in DMEM and erythrocytes were lysed using isotonic ammonium chloride buffer. Immediately following cardiac puncture, mice were transcardially perfused with normal saline for dissection of bone marrow and spleen. […]
(§4) The anti-mouse antibodies listed below (see Table 1) were used for surface marker staining of CD45^+ leukocytes, CD45^+CD11b^+ monocytes (+FasL^+ expression), CD3^+ T cells, CD3^+CD4^+ Thelper cells, CD3^+CD8^+ Tcytotox cells and CD19^+ B cells (for representative gating strategy, see FIG. 10A). […] Flow cytometric data was acquired using a BD FACSverse flow cytometer (BD Biosciences) and analyzed using FlowJo software (Treestar).

[2] = tested on: FasL^+CD11b^+ monocytes (BMDMs); conditions: BMDMs stimulated with rIL-1β in increasing doses, FACS 180 minutes after adding T cells
monocytic FasL = assay: rIL-1β i.p. injection in WT mice: monocytic FasL expression in the spleen by FACS; type: in vivo; conditions: rIL-1β 100 or 1000 ng single i.p. injection, 6 h later
Method: as §2, §3, §4

FasL on BMDMs = assay: BMDMs treated with IL-1a, IL-1b or IL-18: FasL+ expression; type: cell-based, mice; conditions: BMDMs treated with 100 ng of IL-1a, IL-1b or IL-18 for 4 h
T cells = assay: BMDMs stimulated with rIL-1β, then T cell co-culture: T cell death; type: cell-based, mice; conditions: T cells added to rIL-1β-stimulated BMDMs in fresh medium, FACS 180 minutes later
Method: Round-bottom tissue culture-treated 96-well plates were coated with 100 μl of PBS containing a mixture of […] purified NA/LE hamster anti-mouse CD3e (clone: 145-2C11, BD Pharmingen) and […] anti-mouse CD28 (clone: 37.51, Invitrogen), and then incubated overnight at 37° C. with 5% CO2. Spleens (wild type, Casp1^−/−) isolated from mice were homogenized into single splenocyte suspensions by using a 40 μm cell strainer followed by erythrolysis as described above. T cells were purified from splenocytes using a negative selection kit (MagniSort, Thermo Fisher) according to the manufacturer's instructions. Purity was reliably ≥90% as assessed by flow cytometry.
Control-treated BMDMs received only FBS-containing culture media. […] Stimulation by secreted factors (left), and 2. Cell-cell contact (right).

Row | Molecule | T cell death (splenic CD3^+ T cells) | caspase-1 activity in splenic CD11b+ monocytes [1] | caspase-1 activity in splenic CD11b+ monocytes ([1]; listed as C8i) | caspase-1 activity in splenic CD11b+ monocytes ([1]; listed as C9i) | T cell death in the spleen (splenic T cells; listed as rIL-1b) | T cell death in the spleen (splenic T cells; listed as recombinant IL-1β) | ratio of FasL+CD11b+ monocytes / FasL expression [2] | ratio of FasL+CD11b+ monocytes / FasL expression ([2]; listed as recombinant IL-1β) | monocytic FasL expression in the spleen (monocytic FasL) | monocytic FasL expression in the spleen (monocytic FasL; listed as recombinant IL-1β) | FasL+ expression normalized to untreated control (FasL on BMDMs) | T cell death (T cells) | T cell death (T cells; listed as recombinant IL-1β)
1 | CC[C@H](C)[C@H](NC(=O)OCc1ccccc1)C(=O)N[C@@H](CCC(=O)OC)C(=O)N[C@H](C(=O)N[C@@H](CC(=O)OC)C(=O)CF)[C@@H](C)O [Z-IETD-FMK] (Cbz-IE(OMe)TD(OMe)-CH2F) | T cell death was only reduced in mice treated with the caspase-8 | neither affected caspase-1 activation in monocytes | Neither caspase-8 nor caspase-9 inhibitor showed differences in caspase-1 activity compared to the vehicle-treated mice |  |  |  |  |  |  |  |  |  | 
2 | COC(=O)CC[C@H](NC(=O)[C@H](CC(C)C)NC(=O)OCc1ccccc1)C(=O)N[C@@H](Cc1cnc[nH]1)C(=O)N[C@@H](CC(=O)OC)C(=O)CF [Z-LEHD-FMK] (Cbz-LE(OMe)HD(OMe)-CH2F) |  | neither affected caspase-1 activation in monocytes |  | Neither caspase-8 nor caspase-9 inhibitor showed differences in caspase-1 activity compared to the vehicle-treated mice |  |  |  |  |  |  |  |  | 
3 | B1 |  |  |  |  | dose-dependent increase in T cell death in the spleen | dose-dependently induced T cell death and FasL upregulation on myeloid cells | increased the ratio of FasL^+CD11b^+ monocytes | increased FasL expression and T cell death but to a lesser degree than induced by the serum of stroke mice | dose-dependent increase in associated monocytic FasL expression in the spleen | dose-dependently induced T cell death and FasL upregulation on myeloid cells | FasL upregulation on myeloid cells was predominantly induced by IL-1β | increased T cell death | increased FasL expression and T cell death but to a lesser degree than induced by the serum of stroke mice
